{"source": "paper PMC8908544", "about": "(Structure (London, England : 1993), 2022)", "key": {"[1]": {"target": "T1, receptor binding domain (RBD) of SARS-CoV-2 spike protein (SARS-CoV-2, UniProt P0DTC2 333-523)", "test": "BLI"}, "[2]": {"target": "T1, receptor binding domain (RBD) of …", "test": "ELISA"}, "SARS-CoV RBD (306-527)": {"target": "SARS-CoV RBD (306-527) (SARS-CoV, UniProt P59594 306-527)", "test": "BLI"}}}
{"binder": "NB1C6 (VHH) VHH: QVQLQESGGGSVQAGGRLRLSCAASGDTYSSYCMGWFRQAPGKEREGVAAIYIGGDNTYYADSAKGRFTISQDYDKNTAYLQMNSLKSEDTAMYYCAAELFCPWPDIGTMSPAEYKYWGQGTQVTVSS", "values": [{"measurement": "Kd", "setting": "[1]", "value": "5.07 ± 0.05", "unit": "nM"}]}
{"binder": "NB1B11 (VHH) VHH: QVQLQESGGGSVQAGGSLRLSCAASGYTVSVGCMAWFRQAPGKEREGVAGIDASGITKYSDSVKGRFTISKDNAKNALDLQMNGLKPEDTAMYHCAAGLVRGSCTDVLDHPSYLGVWGQGTQVTVSS", "values": [{"measurement": "Kd", "setting": "[1]", "value": "6.76 ± 0.027", "unit": "nM"}, {"measurement": "IC50", "setting": "[2]", "value": 709, "unit": "nM"}]}
{"binder": "format II: bi-paratopic and multivalent nanobody NB1A7-(GGGGS)4-NB1B11-Fc (bispecific antibody) QVQLQESGGGSVQAGGSLRLSCAASGYTFSSYCLGWFRQAPGKEREGVAAIDSDGSTSYADSVKGRFTISRDNAKNTLYLQMNSLKPEDTAMYYCAAEGGPSLSYCTGGYGFLLSGLMYNSWGQGTQVTVSSGGGGSGGGGSGGGGSGGGGSQVQLQESGGGSVQAGGSLRLSCAASGYTVSVGCMAWFRQAPGKEREGVAGIDASGITKYSDSVKGRFTISKDNAKNALDLQMNGLKPEDTAMYHCAAGLVRGSCTDVLDHPSYLGVWGQGTQVTVSSGGGGS", "values": [{"measurement": "Kd", "setting": "[1]", "value": "< 0.001", "unit": "nM"}, {"measurement": "IC50", "setting": "[2]", "value": 37.5, "unit": "nM"}]}
{"binder": "NB1A7 (VHH) VHH: QVQLQESGGGSVQAGGSLRLSCAASGYTFSSYCLGWFRQAPGKEREGVAAIDSDGSTSYADSVKGRFTISRDNAKNTLYLQMNSLKPEDTAMYYCAAEGGPSLSYCTGGYGFLLSGLMYNSWGQGTQVTVSS", "values": [{"measurement": "Kd", "setting": "SARS-CoV RBD (306-527)", "value": 471, "unit": "nM"}]}
